Experimental data reported in patent US20130078247A1.
Read-outs that look alike come from different tables or passages of the source.

Columns and labels:
human Ang2 (human) [1] = target: human Ang2 (human) (UniProt O15123); experiment: competition ELISA hAng2/hTie2-Fc
human Ang2 (human) [2] = target: human Ang2 (human) (UniProt O15123); experiment: competition ELISA hAng2/hTie2-Fc, with 0.5 uM HSA [continued]
human Ang2 (human) [3] = target: human Ang2 (human) (UniProt O15123); experiment: as above; remark: listed apart in the source
human Ang2 (human) [4] = target: human Ang2 (human) (UniProt O15123); experiment: competition ELISA hAng2/hTie2-Fc; remark: listed apart in the source
mouse Ang2 (mouse) [5] = target: mouse Ang2 (mouse) (UniProt O35608); experiment: competition ELISA: mAng2 binding to mTie2
Sequence of mouse Ang2 (mouse) (O35608 19-496 limits assumed): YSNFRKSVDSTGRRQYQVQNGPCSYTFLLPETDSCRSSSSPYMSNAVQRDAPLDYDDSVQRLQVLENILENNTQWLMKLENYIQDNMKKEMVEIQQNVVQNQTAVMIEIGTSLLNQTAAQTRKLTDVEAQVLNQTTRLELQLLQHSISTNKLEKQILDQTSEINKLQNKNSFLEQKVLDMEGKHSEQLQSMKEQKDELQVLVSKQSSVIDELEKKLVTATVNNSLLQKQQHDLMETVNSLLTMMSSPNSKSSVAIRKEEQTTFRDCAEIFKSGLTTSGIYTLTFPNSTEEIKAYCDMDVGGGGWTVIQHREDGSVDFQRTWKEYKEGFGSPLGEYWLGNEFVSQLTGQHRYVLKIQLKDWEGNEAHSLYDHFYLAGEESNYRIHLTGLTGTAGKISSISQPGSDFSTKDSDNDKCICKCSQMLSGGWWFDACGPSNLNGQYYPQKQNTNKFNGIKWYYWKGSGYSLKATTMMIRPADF

mouse Ang2 (mouse) [6] = target: mouse Ang2 (mouse) (UniProt O35608); experiment: competition ELISA: mAng2 binding to mTie2; remark: listed apart in the source
mouse Ang2 (mouse) [7] = target: mouse Ang2 (mouse) (UniProt O35608); experiment: competition ELISA: mAng2 binding to mTie2; remark: listed apart in the source
mouse Ang2 (mouse) [8] = target: mouse Ang2 (mouse) (UniProt O35608); experiment: competition ELISA: mAng2 binding to mTie2; remark: listed apart in the source
human Ang2 (human) [9] = target: human Ang2 (human) (UniProt O15123); experiment: competition ELISA: hAng2 binding to hTie2
[10] = target: human DLL4, full length, overexpressed on CHO or HEK293 cells (human) (UniProt Q9NR61); experiment: competition FMAT: labelled hNotch1-Fc on CHO-hDLL4 cells
[11] = target: mouse DLL4, full length, overexpressed on CHO or HEK293 cells (mouse) (UniProt Q9JI71); experiment: competition FMAT: labelled hNotch1-Fc on CHO-mDLL4 cells, with 25 uM HSA [continued]
Sequence of mouse DLL4, full length, overexpressed on CHO or HEK293 cells (mouse) (Q9JI71 27-686): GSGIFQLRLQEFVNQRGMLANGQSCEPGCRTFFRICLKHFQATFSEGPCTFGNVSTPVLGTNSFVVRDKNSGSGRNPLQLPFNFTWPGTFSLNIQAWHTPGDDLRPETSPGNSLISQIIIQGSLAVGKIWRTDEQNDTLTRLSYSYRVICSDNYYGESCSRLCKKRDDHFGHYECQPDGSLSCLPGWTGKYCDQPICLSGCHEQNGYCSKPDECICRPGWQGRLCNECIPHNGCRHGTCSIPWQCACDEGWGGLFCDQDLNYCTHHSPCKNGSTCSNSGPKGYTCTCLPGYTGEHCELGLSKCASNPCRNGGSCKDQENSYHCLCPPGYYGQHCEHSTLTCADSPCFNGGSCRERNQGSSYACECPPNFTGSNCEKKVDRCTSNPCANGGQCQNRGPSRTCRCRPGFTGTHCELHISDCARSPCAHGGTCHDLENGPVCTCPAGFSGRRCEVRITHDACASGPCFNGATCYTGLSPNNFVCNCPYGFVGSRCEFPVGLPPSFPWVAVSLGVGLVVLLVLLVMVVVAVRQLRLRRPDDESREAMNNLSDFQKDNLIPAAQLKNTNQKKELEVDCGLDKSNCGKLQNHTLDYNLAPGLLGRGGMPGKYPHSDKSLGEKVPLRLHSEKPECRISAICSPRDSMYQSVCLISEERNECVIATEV

[12] = target: mouse DLL4, full length, overexpressed on CHO or HEK293 cells (mouse) (UniProt Q9JI71); experiment: competition FMAT: labelled hNotch1/Fc binding to CHO-mDLL4 cells
[13] = target: human DLL4, full length, overexpressed on CHO or HEK293 cells (human) (UniProt Q9NR61); experiment: competition FMAT: labelled hNotch1-Fc on CHO-hDLL4 cells, with 25 uM HSA [continued]
[14] = target: mouse DLL4, full length, overexpressed on CHO or HEK293 cells (mouse) (UniProt Q9JI71); experiment: competition FMAT: labelled hNotch1-Fc on CHO-mDLL4 cells
[15] = target: mouse DLL4, full length, overexpressed on CHO or HEK293 cells (mouse) (UniProt Q9JI71); experiment: competition FMAT: labelled hNotch1/Fc binding to CHO-mDLL4 cells; panel '+ HSA', HSA not marked for this curve [continued]
[16] = target: recombinant human DLL4 extracellular domain, C-terminally His-tagged (R&D Systems) (human) (UniProt Q9NR61); experiment: hDLL4/hNotch1-Fc competition ELISA
[17] = target: human DLL4, full length, overexpressed on CHO or HEK293 cells (human) (UniProt Q9NR61); experiment: cell-based or functional assay
[18] = target: recombinant human DLL4 extracellular domain, C-terminally His-tagged (R&D Systems) (human) (UniProt Q9NR61); experiment: competition ELISA: 8 nM biotinylated hDLL4 + binder, residual binding to coated hNotch1-Fc
[19] = target: recombinant human DLL4 extracellular domain, C-terminally His-tagged (R&D Systems) (human) (UniProt Q9NR61); experiment: binding ELISA on coated rhDLL4
[20] = target: human DLL4, full length, overexpressed on CHO or HEK293 cells (human) (UniProt Q9NR61); experiment: competition FMAT: labelled hNotch1/Fc binding to CHO-hDLL4 cells; panel '+ HSA', HSA not marked for this curve [continued]
[21] = target: mouse DLL4, full length, overexpressed on CHO or HEK293 cells (mouse) (UniProt Q9JI71); experiment: competition FMAT: labelled hNotch1-Fc on CHO-mDLL4 cells; remark: listed apart in the source
[22] = target: recombinant human DLL4 extracellular domain, C-terminally His-tagged (R&D Systems) (human) (UniProt Q9NR61); experiment: hDLL4/hNotch1 competition AlphaScreen
[23] = target: human DLL4, full length, overexpressed on CHO or HEK293 cells (human) (UniProt Q9NR61); experiment: competition FMAT: labelled hNotch1-Fc on CHO-hDLL4 cells; remark: listed apart in the source
[24] = target: human DLL4, full length, overexpressed on CHO or HEK293 cells (human) (UniProt Q9NR61); experiment: competition FMAT: labelled hNotch1/Fc binding to CHO-hDLL4 cells
[25] = target: human DLL4, full length, overexpressed on CHO or HEK293 cells (human) (UniProt Q9NR61); experiment: competition FMAT: labelled hNotch1-Fc on CHO-hDLL4 cells, with 25 uM HSA [continued]; remark: listed apart in the source
[26] = target: human DLL4, full length, overexpressed on CHO or HEK293 cells (human) (UniProt Q9NR61); experiment: FMAT, Notch1/Fc on CHO-hDLL4
[27] = target: recombinant human DLL4 extracellular domain, C-terminally His-tagged (R&D Systems) (human) (UniProt Q9NR61); experiment: competition ELISA: 8 nM biotinylated hDLL4 + binder, residual binding to coated hNotch1-Fc; remark: listed apart in the source
[28] = target: recombinant human DLL4 extracellular domain, C-terminally His-tagged (R&D Systems) (human) (UniProt Q9NR61); experiment: competition ELISA: 8 nM biotinylated hDLL4 binding to coated hNotch1/Fc
[29] = target: mouse DLL4, full length, overexpressed on CHO or HEK293 cells (mouse) (UniProt Q9JI71); experiment: FMAT, Notch1/Fc on CHO-mDLL4
[30] = target: mouse DLL4, full length, overexpressed on CHO or HEK293 cells (mouse) (UniProt Q9JI71); experiment: competition FMAT: labelled hNotch1-Fc on CHO-mDLL4 cells, with 25 uM HSA [continued]; remark: listed apart in the source
[31] = target: mouse DLL4, full length, overexpressed on CHO or HEK293 cells (mouse) (UniProt Q9JI71); experiment: competition FMAT: labelled hNotch1/Fc binding to CHO-mDLL4 cells; remark: listed apart in the source
[32] = target: mouse DLL4, full length, overexpressed on CHO or HEK293 cells (mouse) (UniProt Q9JI71); experiment: competition FMAT: labelled hNotch1/Fc binding to CHO-mDLL4 cells; panel '+ HSA', HSA not marked for this curve [continued]; remark: listed apart in the source
[33] = target: recombinant mouse DLL4 extracellular domain, C-terminally His-tagged (R&D Systems) (mouse) (UniProt Q9JI71); experiment: binding ELISA on coated rmDLL4
Sequence of recombinant mouse DLL4 extracellular domain, C-terminally His-tagged (R&D Systems) (mouse) (Q9JI71 27-525 limits assumed): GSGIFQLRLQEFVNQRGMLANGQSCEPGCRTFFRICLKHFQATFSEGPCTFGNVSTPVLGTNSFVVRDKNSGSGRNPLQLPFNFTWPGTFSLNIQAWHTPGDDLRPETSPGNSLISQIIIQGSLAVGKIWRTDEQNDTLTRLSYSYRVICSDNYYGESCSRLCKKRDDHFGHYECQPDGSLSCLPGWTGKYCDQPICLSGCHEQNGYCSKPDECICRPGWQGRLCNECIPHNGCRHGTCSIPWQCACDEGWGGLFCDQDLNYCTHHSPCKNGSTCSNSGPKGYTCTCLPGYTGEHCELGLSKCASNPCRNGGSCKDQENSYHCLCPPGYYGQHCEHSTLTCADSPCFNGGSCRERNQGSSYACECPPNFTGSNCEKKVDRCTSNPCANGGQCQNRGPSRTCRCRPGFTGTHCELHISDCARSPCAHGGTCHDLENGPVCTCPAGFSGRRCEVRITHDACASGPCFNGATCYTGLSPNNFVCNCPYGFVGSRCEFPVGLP

Sequence of human Ang2 (human) (O15123 19-496 limits assumed): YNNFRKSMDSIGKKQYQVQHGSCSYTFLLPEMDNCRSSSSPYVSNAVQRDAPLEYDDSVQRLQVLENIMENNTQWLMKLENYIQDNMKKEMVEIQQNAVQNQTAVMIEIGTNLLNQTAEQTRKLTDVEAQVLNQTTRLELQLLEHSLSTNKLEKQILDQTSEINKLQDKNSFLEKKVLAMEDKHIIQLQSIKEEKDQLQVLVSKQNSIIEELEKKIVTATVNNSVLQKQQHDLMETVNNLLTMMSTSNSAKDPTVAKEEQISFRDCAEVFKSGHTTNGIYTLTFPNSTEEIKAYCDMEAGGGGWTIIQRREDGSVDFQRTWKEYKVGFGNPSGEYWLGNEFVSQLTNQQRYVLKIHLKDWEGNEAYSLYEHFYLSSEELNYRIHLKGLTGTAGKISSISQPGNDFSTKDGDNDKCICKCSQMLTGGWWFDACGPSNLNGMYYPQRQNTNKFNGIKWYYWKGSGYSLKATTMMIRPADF

Question: Which IC50 (read off the curve) (human Ang2 (human) [1]) does the source give for AMG386 here?
Answer: The IC50 (read off the curve) was 0.005 nM.

Question: What about the IC50 (read off the curve) (human Ang2 (human) [2]) of the same substance?
Answer: Its IC50 (read off the curve) is 0.004 nM.

Question: And the IC50 (read off the curve) (human Ang2 (human) [3])?
Answer: Its IC50 (read off the curve) is 0.005 nM.

Question: And the IC50 (read off the curve) (human Ang2 (human) [4])?
Answer: Its IC50 (read off the curve) is 0.004 nM.

Question: What about the IC50 (read off the curve) (mouse Ang2 (mouse) [5]) of the same substance?
Answer: The IC50 (read off the curve) was 0.007 nM.

Question: What about the IC50 (read off the curve) (mouse Ang2 (mouse) [6]) of the same substance?
Answer: Its IC50 (read off the curve) is 0.004 nM.

Question: What about the IC50 (read off the curve) (mouse Ang2 (mouse) [7]) of the same substance?
Answer: The IC50 (read off the curve) was 0.003 nM.

Question: What about the IC50 (read off the curve) (mouse Ang2 (mouse) [8]) of the same substance?
Answer: The IC50 (read off the curve) was 0.009 nM.

Question: What about the IC50 (read off the curve) (human Ang2 (human) [9]) of the same substance?
Answer: The IC50 (read off the curve) was 0.003 nM.

Question: Which results are given for “anti-DLL4 Fab fragment (Fab of the Genentech DII4 mAb of US 2008/0014196)”?
Answer: IC50 (read off the curve) [10]: 7 nM; IC50 (read off the curve) [11]: 2 nM; IC50 (read off the curve) [12]: 3 nM; IC50 (read off the curve) [13]: 7 nM; IC50 (read off the curve) [14]: 1 nM; IC50 (read off the curve) [15]: 3 nM; IC50 [16]: 0.7 nM; IC50, DLL4/Notch1 reporter assay (luciferase; co-culture with HEK293-hDII4) [17]: 133 nM; IC50 (read off the curve) [18]: 5 nM; EC50 (read off the curve) [19]: 0.8 nM; IC50 (read off the curve) [20]: 3 nM; IC50 (read off the curve) [21]: 2 nM; IC50 [22]: 0.3 nM; IC50 (read off the curve) [23]: 5 nM; IC50 (read off the curve) [24]: 4 nM; IC50 (read off the curve) [25]: 4 nM; IC50 [26]: 5.4 nM; IC50 (read off the curve) [27]: 4 nM; IC50 (read off the curve) [28]: 3 nM; IC50 [29]: 2.3 nM; IC50 (read off the curve) [30]: 1 nM; IC50 (read off the curve) [31]: 2 nM; IC50 (read off the curve) [32]: 2 nM; EC50 (read off the curve) [33]: 0.9 nM
